The text below walks through data of patent US20140113322A1, “SUPRAMOLECULAR NANOBEACON IMAGING AGENTS AS PROTEASE SENSORS” (priority 2012, published 2014).

In this data set the test system is MCF-7 cells.

On to `COc1cc(N=Nc2ccc(C)cc2[N+](=O)[O-])c(C)cc1N=Nc1ccc(N(C)CCCC(=O)NCCCC[C@H](NC(=O)CNC(=O)[C@H](CC(C)C)NC(=O)[C@H](Cc2ccccc2)NC(=O)CNC(=O)c2ccc3c(c2)C(=O)OC32c3ccc(O)cc3Oc3cc(O)ccc32)C(=O)NCC(=O)N[C@@H](CCCNC(=N)N)C(=O)N[C@@H](CCCCN)C(=O)N[C@@H](CCCCN)C(=O)N[C@@H](CCCNC(=N)N)C(=O)N[C@@H](CCCNC(=N)N)C(=O)N[C@@H](CCC(N)=O)C(=O)N[C@@H](CCCNC(=N)N)C(=O)N[C@@H](CCCNC(=N)N)C(=O)N[C@@H](CCCNC(=N)N)C(=O)N2CCC[C@H]2C(=O)N2CCC[C@H]2C(=O)N[C@@H](CCC(N)=O)C(N)=O)cc1` [TFB], for which the “toxicity to MCF-7 cells (cell viability)” value was “little toxicity”.
